Source: publication PMC7614228, “Structural maturation of SYCP1-mediated meiotic chromosome synapsis by SYCE3” (Nature structural & molecular biology, 2023)
Substitutions are numbered along the chain they refer to. “And” between values parts separate entries of the source, which are not always exact repeats. Equal values may be shown once.

Columns and labels:
[1] = molecular target: T1, SYCE2-TEX12core (human, UniProt Q6PIF2 57-165; Q9BXU0 49-123, RED dye (Monolith NT Protein Labelling Kit RED) in the MST only; which chain not stated | RED dye (Monolith NT Protein Labelling Kit RED) in the MST only; which chain not stated); assay: MST; SYCE3 titrated into 150 nM labelled SYCE2-TEX12core; Monolith NT.115, excitation and MST power 40 %; apparent affinity; details: both partners purified
T1 construct: SYCE2 core; TEX12 core; Unlabelled in the SEC, labelled in the MST; source: E. coli BL21(DE3), purified
T1 sequence (looked up) 1: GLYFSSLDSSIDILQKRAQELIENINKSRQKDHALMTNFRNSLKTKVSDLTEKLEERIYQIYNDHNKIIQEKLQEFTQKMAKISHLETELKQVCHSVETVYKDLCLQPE
T1 sequence (looked up) 2: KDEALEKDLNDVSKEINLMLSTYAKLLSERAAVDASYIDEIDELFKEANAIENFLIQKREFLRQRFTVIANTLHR

[2] = molecular target: the molecule itself; assay: SEC-MALS; proteins in isolation, 5-20 mg/ml; Superdex 200 Increase, 20 mM Tris pH 8.0, 150 mM KCl, 2 mM DTT
[3] = molecular target: T2, SYCP1αNcore (amino-acids 206-362) (human, UniProt Q15431 206-362); assay: ITC; SYCE3 (400 μM) injected into SYCP1αNcore (70 μM) at 30°C; 25 mM Tris pH 8.0, 250 mM KCl, 2 mM DTT; apparent affinity; details: both partners purified
T2 construct: SYCP1 αNcore (tetrameric core), amino-acids 206-362; Tetramer alone (SEC-MALS); two chains in the 2:1 complex with SYCE3; also called SYCP1 tetrameric core; source: E. coli BL21(DE3), purified alone or co-expressed and co-purified with SYCE3 (amylose, TEV, anion exchange, SEC); not shown: MBP, N-terminal, cleaved
T2 sequence (looked up): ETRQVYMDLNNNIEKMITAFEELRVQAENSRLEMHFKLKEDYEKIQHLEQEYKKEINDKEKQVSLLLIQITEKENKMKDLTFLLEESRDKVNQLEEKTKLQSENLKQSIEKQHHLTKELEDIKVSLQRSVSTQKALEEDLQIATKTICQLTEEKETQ

[4] = molecular target: T3, SYCP1αN V105E L109E (human, UniProt Q15431 101-362, V105E | L109E); assay: SEC-MALS; co-expressed and co-purified SYCP1-SYCE3 complexes, 5-20 mg/ml; 20 mM Tris pH 8.0, 150 mM KCl, 2 mM DTT (Superose 6 Increase for MBP-SYCP1αN-His-SYCE3); details: both partners purified
T3 construct: SYCP1αN, amino-acids 101-362, with V105E L109E; source: E. coli BL21(DE3), in complex with SYCE3
T3 sequence (looked up): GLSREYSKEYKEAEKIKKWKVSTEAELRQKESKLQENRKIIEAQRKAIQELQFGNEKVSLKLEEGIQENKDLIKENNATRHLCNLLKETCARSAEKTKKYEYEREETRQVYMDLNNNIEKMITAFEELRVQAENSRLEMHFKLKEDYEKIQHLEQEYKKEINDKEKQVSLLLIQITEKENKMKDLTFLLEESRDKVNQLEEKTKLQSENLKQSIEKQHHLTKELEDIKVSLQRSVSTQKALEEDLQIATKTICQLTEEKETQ

[5] = molecular target: T4, SYCP1 αCore-ΔNtip (amino-acids 112-783) (human, UniProt Q15431 112-783); assay: as above; details: both partners purified
T4 construct: SYCP1 α-helical core without the αNtip, amino-acids 112-783; also called SYCP1's full α-helical core, in which αNtips were deleted; source: E. coli BL21(DE3), purified, alone or in complex with SYCE3
T4 sequence (looked up): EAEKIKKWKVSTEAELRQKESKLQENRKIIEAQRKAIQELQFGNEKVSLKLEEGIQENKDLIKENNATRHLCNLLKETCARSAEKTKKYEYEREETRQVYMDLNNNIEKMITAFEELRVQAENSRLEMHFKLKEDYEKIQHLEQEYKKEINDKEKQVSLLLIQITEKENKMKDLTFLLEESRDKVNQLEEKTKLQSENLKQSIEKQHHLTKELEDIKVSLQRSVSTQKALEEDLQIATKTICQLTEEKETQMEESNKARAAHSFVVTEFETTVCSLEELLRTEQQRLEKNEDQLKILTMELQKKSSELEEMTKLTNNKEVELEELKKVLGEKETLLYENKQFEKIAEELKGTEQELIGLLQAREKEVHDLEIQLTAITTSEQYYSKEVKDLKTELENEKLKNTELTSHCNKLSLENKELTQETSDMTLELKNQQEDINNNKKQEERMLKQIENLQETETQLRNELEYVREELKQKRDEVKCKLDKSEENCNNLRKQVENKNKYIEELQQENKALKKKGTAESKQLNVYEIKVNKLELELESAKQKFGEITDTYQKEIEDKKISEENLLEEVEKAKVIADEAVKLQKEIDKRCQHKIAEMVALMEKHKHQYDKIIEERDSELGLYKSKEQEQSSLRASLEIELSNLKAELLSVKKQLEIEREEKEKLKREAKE

[6] = molecular target: T5, SYCP1αN (amino-acids 101-362) (human, UniProt Q15431 101-362); assay: as above; details: both partners purified
T5 construct: SYCP1 α-helical N-terminal region, amino-acids 101-362; source: E. coli BL21(DE3), purified, alone or co-expressed and co-purified with SYCE3
T5 sequence (looked up): T3 sequence (looked up) with E5V, E9L

[7] = molecular target: T2, SYCP1αNcore (amino-acids 206-362); assay: as above; details: both partners purified
[8] = molecular target: T6, SYCP1αN ΔNtip (human, UniProt Q15431 112-362); assay: as above; details: both partners purified
T6 construct: SYCP1αN (101-362) with the αNtip (101-111) deleted; also called SYCP1 ΔNtip; source: E. coli BL21(DE3), co-purified with SYCE3
T6 sequence (looked up): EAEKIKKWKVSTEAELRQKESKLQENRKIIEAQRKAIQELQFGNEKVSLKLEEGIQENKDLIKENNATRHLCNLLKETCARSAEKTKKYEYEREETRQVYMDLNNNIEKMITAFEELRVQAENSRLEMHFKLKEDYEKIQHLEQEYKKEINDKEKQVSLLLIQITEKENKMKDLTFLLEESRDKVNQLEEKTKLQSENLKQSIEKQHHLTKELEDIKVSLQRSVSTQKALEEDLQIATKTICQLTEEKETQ

B1: SYCE3 (natural protein, human, UniProt A1L190 1-88, looked up)
chain: MDDADPEERNYDNMLKMLSDLNKDLEKLLEEMEKISVQATWMAYDMVVMRTNPTLAESMRRLEDAFVNCKEEMEKNWQELLHETKQRL
notes: SYCE3 without a stated truncation; Dimer alone (SEC-MALS); one chain in the 2:1 complex with SYCP1; also called SYCE3 wild-type; free SYCE3; source: E. coli BL21(DE3), purified (Ni-NTA or amylose, TEV, anion exchange, SEC), alone or co-purified with SYCP1 constructs; not shown: His or His-MBP, N-terminal, cleaved
[1]
  Kd: 21800 nM
[2]
  stoichiometry N: 2
[3]
  Kd: 170 nM
  apparent KD of one replicate: 230 nM and 120 nM and 160 nM
[4]
  stoichiometry N: 2 SYCP1 chains per SYCE3 chain
[5]
  stoichiometry N: 2 SYCP1 chains per SYCE3 chain
[6]
  stoichiometry N: 2 SYCP1 chains per SYCE3 chain (2:1) and 4 SYCP1 chains with 2 SYCE3 chains (4:2)
[7]
  stoichiometry N: 2 SYCP1 chains per SYCE3 chain
[8]
  stoichiometry N: 2 SYCP1 chains per SYCE3 chain
